Experimental data as given in patent US20240374671A1 (ACCELERON PHARMA, published 2024).
Positions count from the first letter of the chain named. Where two headings read alike, the source gives them in different places.

Assays:
monomeric hActRIIB [1] = target: T1, monomeric hActRIIB (human, UniProt Q13705 25-130, limits assumed); assay: SPR (Biacore), 37 C
T1 construct: also called ActRIIB MONOMER; ActRIIB monomer
T1 sequence: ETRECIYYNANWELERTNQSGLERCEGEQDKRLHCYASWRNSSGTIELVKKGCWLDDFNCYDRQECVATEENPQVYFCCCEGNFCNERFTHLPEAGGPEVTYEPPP

dimeric hActRIIB [2] = target: T2, dimeric hActRIIB (human, UniProt Q13705 25-130); assay: SPR (Biacore), 37 C
T2 construct: also called ActRIIB DIMER; ActRIIB dimer
T2 sequence: T1 sequence

monomeric hActRIIA [3] = target: T3, monomeric hActRIIA (human, UniProt P27037 21-138, limits assumed); assay: SPR (BIACORE), 37 C, series of concentrations (not printed on the sheet)
T3 construct: also called ActRIIA MONOMER; ActRIIA monomer

dimeric hActRIIA [4] = target: T4, dimeric hActRIIA (human, UniProt P27037 21-138); assay: as above
T4 construct: also called ActRIIA DIMER; ActRIIA dimer

monomeric hActRIIA [5] = target: T3, monomeric hActRIIA; assay: SPR (Biacore), 37 C
Experimental: (§1) Kinetic characterization of G02 antibody binding to monomeric and dimeric hActRIIB and hActRIIA was performed using standard BIACORE®-based analysis at 37° C. FIGS. 8A-8D show kinetic characterization of G02 antibody binding to monomeric and dimeric hActRIIB and hActRIIA (FIG. 8A-8D, respectively) as determined by BIACORE®-based analysis at 37° C.

dimeric hActRIIA [6] = target: T4, dimeric hActRIIA; assay: SPR (Biacore), 37 C
Experimental: as §1

monomeric hActRIIB [7] = target: T1, monomeric hActRIIB; assay: SPR (BIACORE), 37 C, series of concentrations (not printed on the sheet)
Experimental: as §1

dimeric hActRIIB [8] = target: T2, dimeric hActRIIB; assay: as above
Experimental: as §1

monomeric hActRIIB [9] = target: T1, monomeric hActRIIB; assay: SPR (Biacore), 37 C; remark: listed apart in the source
dimeric hActRIIB [10] = target: T2, dimeric hActRIIB; assay: SPR (Biacore), 37 C; remark: listed apart in the source
monomeric hActRIIA [11] = target: T3, monomeric hActRIIA; assay: SPR (Biacore), 37 C; remark: listed apart in the source
dimeric hActRIIA [12] = target: T4, dimeric hActRIIA; assay: SPR (Biacore), 37 C; remark: listed apart in the source
[13] = target: T5, human ActRIIB ECD (peptide library) (human, UniProt Q13705 25-130); assay: Pepscan peptide library ELISA (linear 15-mers and CLIPS)
T5 construct: also called AcRIIB
T5 sequence: T1 sequence
Experimental: Mapping of the ActRIIB and ActRIIA ECD epitopes recognized by the antibodies was performed by Pepscan Presto BV using custom made peptide libraries. Sequences of ECDs of human ActRIIB and ActRIIA were converted into libraries of overlapping linear 15-mers and circularized 15-mer CLIPS using combinatorial matrix design. CLIPS (Chemical Linkage of Peptides onto Scaffolds) technology structurally fixes peptides into defined three-dimensional structures (single, double, triple, etc. loops) creating functional mimics of complex binding sites. Peptides were synthesized on solid support. Binding of antibodies to each of the synthesized peptides was tested by ELISA and binding affinities were quantified. Peptide constructs representing both parts of the discontinuous epitope in the correct conformation bind specific antibody with the highest affinity. […] Each peptide was given a score based on affinity.

monomeric hActRIIA [14] = target: T3, monomeric hActRIIA; assay: SPR (Biacore), 37 C; remark: listed apart in the source
dimeric hActRIIA [15] = target: T4, dimeric hActRIIA; assay: SPR (Biacore), 37 C; remark: listed apart in the source

T3 sequence (P27037 21-138 limits assumed): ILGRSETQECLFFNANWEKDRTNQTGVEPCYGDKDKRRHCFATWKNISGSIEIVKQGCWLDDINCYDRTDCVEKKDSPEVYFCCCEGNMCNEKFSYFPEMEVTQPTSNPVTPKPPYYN
T4 sequence (P27037 21-138): as the sequence (P27037 21-138 limits assumed) above

B1: G01 (antibody, human IgG1, kappa, V domains shown)
VH: QLQLQESGPGLVKPSETLSLTCTVSGGSISSSSYAWGWIRQPPGKGLEWIGSIYYSGSTYYNPSLKSRVTISVDTSKNQFSLKLSSVTAADTAVYYCARAGKYRWHGMDVWGQGTTVTVSS
VL: DIQMTQSPSSVSASVGDRVTITCRASQGISSWLAWYQQKPGKAPKLLIYAASNLQSGVPSRFSGSGSGTDFTLTISSLQPEDFATYYCQQAPDLPITFGGGTKVEIKR
notes: Human IgG; also called G01 Parent; G01 (naïve parent)
Binder B1 has a Kd (monomeric hActRIIB [1]) of 16.8 nM, a koff (monomeric hActRIIB [1]) of 0.0152 s⁻¹ and a kon (monomeric hActRIIB [1]) of 905000 M⁻¹ s⁻¹. The Kd (dimeric hActRIIB [2]) was 1.14 nM, the koff (dimeric hActRIIB [2]) was 0.00022 s⁻¹ and the kon (dimeric hActRIIB [2]) was 176000 M⁻¹ s⁻¹. B1: no binding (monomeric hActRIIA [3]); no binding (dimeric hActRIIA [4]).

B2: G02 (antibody, human IgG1, kappa, V domains shown)
VH: QVQLQESGPGLVKPSQTLSLTCTVSGGSISSGSYYWSWIRQHPGKGLEWIGYIYYSGSTYYNPSLKSRVTISVDTSKNQFSLKLSSVTAADTAVYYCARGLGMYYHVPFDIWGQGTMVTVSS
VL: EIVLTQSPATLSLSPGERATLSCRASQSVSSYLAWYQQKPGQAPRLLIYDASNRATGIPARFSGSGSGTDFTLTISSLEPEDFAVYYCQQYFHWPPTFGGGTKVEIKR
notes: Human IgG
B2 gave a Kd (monomeric hActRIIA [5]) of 58 nM, a koff (monomeric hActRIIA [5]) of 0.0661 s⁻¹ and a kon (monomeric hActRIIA [5]) of 1.14e+06 M⁻¹ s⁻¹. For the same binder, the Kd (dimeric hActRIIA [6]) was 1.48 nM, the koff (dimeric hActRIIA [6]) was 0.000275 s⁻¹ and the kon (dimeric hActRIIA [6]) was 186000 M⁻¹ s⁻¹. B2: no binding (monomeric hActRIIB [7]); no binding (dimeric hActRIIB [8]).

B3: F02 (antibody, human IgG1, kappa, V domains shown)
VH: EVQLLESGGGLVQPGGSLRLSCAASGFTFSRYAMSWVRQAPGKGLEWVSGISGSGGATYYADSVKGRFTISRDNSKNTLYLQMNSLRAEDTAVYYCAKDPLSLLLGYFDYWGQGALVTVSS
VL: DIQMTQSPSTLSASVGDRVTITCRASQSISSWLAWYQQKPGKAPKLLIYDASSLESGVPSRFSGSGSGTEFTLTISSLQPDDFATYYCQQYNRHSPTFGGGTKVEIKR
notes: Human IgG; also called F02 variant; F02 optimized antibody
Work on B3 yielded a Kd (monomeric hActRIIB [9]) of 2.63 nM, a koff (monomeric hActRIIB [9]) of 0.000313 s⁻¹ and a kon (monomeric hActRIIB [9]) of 119000 M⁻¹ s⁻¹. The Kd (dimeric hActRIIB [10]) was 0.738 nM, the koff (dimeric hActRIIB [10]) was 3.46e-05 s⁻¹ and the kon (dimeric hActRIIB [10]) was 46900 M⁻¹ s⁻¹. B3: no binding (monomeric hActRIIA [11]); no binding (dimeric hActRIIA [12]).

B4: I01 (antibody, human IgG4 S228P, kappa, V domains shown)
VH: EVQLLESGGGLVQPGGSLRLSCAASGFTFGSYGMTWVRQAPGKGLEWVSVISGSGGGTYYADSVKGRFTISRDNSKNTLYLQMNSLRAEDTAVYYCAKGPRIVGMDVWGQGTTVTVSS
VL: B1 VL with N53S, A91V, P92F, D93S, L94Y, I96L
B4: binds [13].

B5: H01 (antibody, human IgG1, kappa, V domains shown)
VH: QVQLQESGPGLVKPSETLSLTCAVSGYSISSGVYWMWIRQPPGKGLEWIGSIVHSGHTYYNPSLKSRVTISVDTSKNQFSLKLSSVTAADTAVYYCARAGKYRWHGMDVWGQGTTVTVSS
VL: B1 VL
notes: Human IgG
Work on B5 yielded a Kd (monomeric hActRIIB [1]) of 11.8 nM, a koff (monomeric hActRIIB [1]) of 0.023 s⁻¹ and a kon (monomeric hActRIIB [1]) of 1.95e+06 M⁻¹ s⁻¹. It also gave a Kd (dimeric hActRIIB [2]) of 0.353 nM, a koff (dimeric hActRIIB [2]) of 0.000127 s⁻¹ and a kon (dimeric hActRIIB [2]) of 358000 M⁻¹ s⁻¹. B5: no binding (monomeric hActRIIA [14]); no binding (dimeric hActRIIA [15]).
